Experimental data: the supplement of paper PMC9876800

Tested on: peptide library, one residue held at a place counted from the S/T acceptor
Experiment: relative phosphorylation of the sub-library (ratio to the mean residue at this position); higher = residue favoured
Summary of the method: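 Human or orthologue kinase constructs, purified and recombinant, were incubated under kinase-specific conditions in 384-well plates with biotinylated degenerate peptide sub-libraries. Each sub-library fixed one residue at one position around a central Ser/Thr. Incubations lasted 90 min with peptides at 50 μM and 50 μM ATP spiked with γ-32P-ATP, after which spots on streptavidin membranes were phosphorimaged and quantified by densitometry. Relative sub-library phosphorylation is a ratio to the mean residue at that position.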

EIF2AK4, construct: aa191-1024, human, sequence (Q9P2K8 191-1024, looked up): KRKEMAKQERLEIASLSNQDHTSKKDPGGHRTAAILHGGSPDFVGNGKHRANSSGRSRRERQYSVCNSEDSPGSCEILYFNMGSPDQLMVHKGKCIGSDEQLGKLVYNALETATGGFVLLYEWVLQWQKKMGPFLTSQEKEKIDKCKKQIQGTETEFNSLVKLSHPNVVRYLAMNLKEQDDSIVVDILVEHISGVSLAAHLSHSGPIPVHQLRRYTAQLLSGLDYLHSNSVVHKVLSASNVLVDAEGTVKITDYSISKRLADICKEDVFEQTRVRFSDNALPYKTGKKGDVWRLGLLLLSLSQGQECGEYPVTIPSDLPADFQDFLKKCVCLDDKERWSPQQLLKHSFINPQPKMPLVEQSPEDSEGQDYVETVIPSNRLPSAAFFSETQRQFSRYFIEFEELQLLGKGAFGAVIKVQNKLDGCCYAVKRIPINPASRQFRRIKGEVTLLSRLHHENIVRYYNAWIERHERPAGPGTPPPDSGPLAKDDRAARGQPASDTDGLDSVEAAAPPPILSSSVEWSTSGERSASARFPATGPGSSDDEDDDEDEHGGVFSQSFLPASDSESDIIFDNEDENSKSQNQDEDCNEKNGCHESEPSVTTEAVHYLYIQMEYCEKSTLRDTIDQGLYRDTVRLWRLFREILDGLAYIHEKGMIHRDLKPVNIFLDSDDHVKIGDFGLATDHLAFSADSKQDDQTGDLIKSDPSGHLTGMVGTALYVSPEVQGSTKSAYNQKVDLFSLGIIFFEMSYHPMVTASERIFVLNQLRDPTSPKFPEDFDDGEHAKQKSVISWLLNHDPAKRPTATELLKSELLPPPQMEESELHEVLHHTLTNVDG

EIF2AK4, construct: aa191-1024, human (from UniProt Q9P2K8)
relative phosphorylation
Settings	at +1	at +2	at +3	at +4	at -1	at -2	at -3	at -4	at -5
A fixed	0.622	0.832	0.837	0.891	0.732	0.958	0.968	1.01	1.07
D fixed	0.335	1.1	0.504	0.75	1.22	2.28	1.62	1.47	1.12
E fixed	0.537	0.351	0.539	0.788	0.894	2.2	1.68	1.16	1.06
F fixed	2.06	0.645	0.948	0.945	0.836	1.18	0.891	0.86	1.07
G fixed	0.757	0.811	2.04	1.16	1.03	1.02	0.924	1.1	1.06
H fixed	1.04	1.8	1.02	0.969	1.12	0.964	0.901	1.18	1.17
I fixed	0.858	0.689	0.699	0.896	0.635	0.533	0.76	0.77	0.823
K fixed	0.724	0.717	1.11	1.08	0.78	0.555	0.695	0.945	1.04
L fixed	0.621	0.631	0.75	0.976	1.15	0.693	1.02	0.829	0.726
M fixed	1.68	0.59	0.826	0.973	1.11	1.09	1.08	0.846	0.825
N fixed	0.933	0.841	0.829	0.867	1.38	1.21	0.959	1.04	0.923
P fixed	0.162	0.475	1.9	1.07	0.629	0.643	0.699	0.825	0.824
Q fixed	1.28	0.611	0.774	0.811	1.26	0.968	0.976	0.997	0.881
R fixed	1.03	1.98	1.28	1.2	1.08	0.654	0.844	0.882	1.26
V fixed	0.996	0.773	0.74	0.849	0.961	0.52	0.727	0.838	0.926
W fixed	1.24	1.29	0.998	1.62	1.04	0.698	1.16	1.25	1.25
Y fixed	2.13	2.85	1.2	1.16	1.13	0.828	1.1	1	0.975
pThr fixed	0.715	0.592	0.686	0.736	0.803	1.16	0.969	1.03	0.724
pTyr fixed	0.656	0.789	0.83	1.55	1.43	0.652	1.01	0.867	0.881
